For one substance, Kd results are on record in publication PMC2649420.

By Kd is commonly meant the concentration at which binding is half-saturated. Read a high Kd as lower affinity.

Test in all cases: SPR
In assay [1] the target is Sbi-IV (amino acids 197-266), domain IV of Sbi (S. aureus strain Mu50) (UniProt Q99RL2).
Assay [2] deals with Sbi-III-IV (amino acids 150-266), domains III and IV of Sbi (S. aureus strain Mu50) (UniProt Q99RL2).
For assay [3] the target is unchanged. The source holds these as a separate data set.

Where two headings read alike, the source gives them in different places.

In the case of “C3dg, recombinant (from UniProt P01024 955-1303) (domain or fragment)”, the Kd came out at 0.8 µM in assay [1], 1.4 µM in assay [2] and 0.7 µM in assay [3].
